How the values were obtained:
[1] = molecular target: T1, recombinant ECTV CrmD (cytokine response modifier D), C-terminally tagged with V5 and 6xHis (ectromelia virus (ECTV)); test: SPR
[2] = molecular target: T1, recombinant ECTV CrmD (cytokine …); test: SPR; remark: listed apart in the source

B1: mouse Ccl27 (ligand)
chain: LPLPSSTSCCTQLYRQPLPSRLLRRIVHMELQEADGDCHLQAVVLHLARRSVCVHPQNRSLARWLERQGKRLQGTVPSLNLVLQKKMYSHPQQQN
[1]
  koff: 0.00372 s⁻¹
[2]
  Kd: 5.41 nM

Reference: article PMC5934441 (2018)
